T1: hLa K86A/T87A/K88A (human, UniProt P05455 1-408, K86A;T87A;K88A)
T1 sequence: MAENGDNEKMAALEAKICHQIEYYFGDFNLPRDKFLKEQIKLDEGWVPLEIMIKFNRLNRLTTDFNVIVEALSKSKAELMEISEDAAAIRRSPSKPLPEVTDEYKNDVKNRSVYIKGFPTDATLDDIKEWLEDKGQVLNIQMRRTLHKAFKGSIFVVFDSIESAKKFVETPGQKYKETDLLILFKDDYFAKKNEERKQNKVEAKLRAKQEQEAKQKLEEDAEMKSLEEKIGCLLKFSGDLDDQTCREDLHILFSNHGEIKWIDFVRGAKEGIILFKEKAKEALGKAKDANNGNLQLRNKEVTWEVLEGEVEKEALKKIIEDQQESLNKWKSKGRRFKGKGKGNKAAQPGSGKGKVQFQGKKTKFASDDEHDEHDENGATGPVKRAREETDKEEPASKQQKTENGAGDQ

T2: hLa R32A/K34A/K37A (human, UniProt P05455 1-408, R32A;K34A;K37A)
T2 sequence: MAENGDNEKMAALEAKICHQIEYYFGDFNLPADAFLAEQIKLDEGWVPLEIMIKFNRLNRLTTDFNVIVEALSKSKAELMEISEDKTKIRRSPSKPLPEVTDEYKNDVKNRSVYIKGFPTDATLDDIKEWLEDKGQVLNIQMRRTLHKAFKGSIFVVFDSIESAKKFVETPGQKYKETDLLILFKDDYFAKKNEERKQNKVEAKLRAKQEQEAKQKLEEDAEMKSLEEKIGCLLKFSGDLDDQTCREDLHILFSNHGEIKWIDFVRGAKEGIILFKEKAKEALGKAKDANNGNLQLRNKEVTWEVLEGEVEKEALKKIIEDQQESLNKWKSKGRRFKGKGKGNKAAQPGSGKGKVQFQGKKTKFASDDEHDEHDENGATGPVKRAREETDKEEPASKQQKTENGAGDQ

T3: human La (hLa) (human, UniProt P05455 1-408)
T3 sequence: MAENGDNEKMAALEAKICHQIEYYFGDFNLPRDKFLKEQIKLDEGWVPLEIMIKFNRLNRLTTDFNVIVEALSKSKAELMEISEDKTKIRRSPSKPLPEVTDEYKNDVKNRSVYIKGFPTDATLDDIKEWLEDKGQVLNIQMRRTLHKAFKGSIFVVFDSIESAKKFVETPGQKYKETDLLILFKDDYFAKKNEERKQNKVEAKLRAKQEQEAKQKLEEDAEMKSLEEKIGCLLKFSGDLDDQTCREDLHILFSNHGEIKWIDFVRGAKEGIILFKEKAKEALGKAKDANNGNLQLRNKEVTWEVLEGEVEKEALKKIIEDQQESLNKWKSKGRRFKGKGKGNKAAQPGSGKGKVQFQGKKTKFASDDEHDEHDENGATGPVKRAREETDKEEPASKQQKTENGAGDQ


Assays:
hLa K86A/T87A/K88A = target: T1, hLa K86A/T87A/K88A; assay: EMSA
hLa R32A/K34A/K37A = target: T2, hLa R32A/K34A/K37A; assay: EMSA
human La (hLa) = target: T3, human La (hLa); assay: competition

| Binder | binding result (hLa K86A/T87A/K88A) | binding result (hLa R32A/K34A/K37A) | binding result (human La (hLa)) |
| --- | --- | --- | --- |
| UUUUUUUUUU (ssRNA) [U10] | binds | binds | – |
| AAAAAAAAAAAAAAAAAAAA (ssRNA) [A20] | – | binds | – |
| UUUUUUUUUUUUUUUUUUUU (ssRNA) [U20] | – | – | binds |

From article PMC5934636
